Source: article PMC4741457, “Structural basis for the indispensable role of a unique zinc finger motif in LNX2 ubiquitination” (Oncotarget, 2015)

Biological target: the molecule itself
Assay: SEC; calibrated gel-filtration column (Superdex 75 or Superdex 200), each protein run alone

Row | Protein | stoichiometry N | binding result
1 | Zn-RING-Zn domain of LNX2 (aa 20-147) (domain or fragment, human, UniProt Q8N448 20-147, looked up, Genes were cloned into pGEX6P-1 or pMAL; The last six residues are not in the crystallographic model; Four zinc ions per monomer; source: E. coli BL21 (DE3), purified (glutathione or amylose sepharose, tag cleaved, Superdex size exclusion)) NPLCFECGQQHWTRENHLYNYQNEVDDDLVCHICLQPLLQPLDTPCGHTFCYKCLRNFLQEKDFCPLDRKRLHFKLCKKSSILVHKLLDKLLVLCPFSSVCKDVMQRCDLEAHLKNRCPGASHRRVAL | 2 | 
2 | full-length LNX2 (enzyme, human, UniProt Q8N448 1-690, looked up, Ligand of Numb protein-X 2 (LNX2), human, full length (last residue Val690); The methods say in general that MBP-tagged proteins were cleaved with TEV protease before size exclusion; MBP-tagged FL-LNX2 was used uncleaved in some ubiquitination assays; also called FL-LNX2; Ligand of Numb Protein-X 2; source: E. coli BL21 (DE3), purified (amylose sepharose, size exclusion)) MGTTSDEMVSVEQTSSSSLNPLCFECGQQHWTRENHLYNYQNEVDDDLVCHICLQPLLQPLDTPCGHTFCYKCLRNFLQEKDFCPLDRKRLHFKLCKKSSILVHKLLDKLLVLCPFSSVCKDVMQRCDLEAHLKNRCPGASHRRVALERRKTSRTQAEIENENGPTLLDPAGTLSPEADCLGTGAVPVERHLTSASLSTWSEEPGLDNPAFEESAGADTTQQPLSLPEGEITTIEIHRSNPYIQLGISIVGGNETPLINIVIQEVYRDGVIARDGRLLAGDQILQVNNYNISNVSHNYARAVLSQPCNTLHLTVLRERRFGNRAHNHSDSNSPREEIFQVALHKRDSGEQLGIKLVRRTDEPGVFILDLLEGGLAAQDGRLSSNDRVLAINGHDLKYGTPELAAQIIQASGERVNLTIARPGKPQPGNTIREAGNHSSSSQHHTPPPYYSRPSSHKDLTQCVTCQEKHITVKKEPHESLGMTVAGGRGSKSGELPIFVTSVPPHGCLARDGRIKRGDVLLNINGIDLTNLSHSEAVAMLKASAASPAVALKALEVQIVEEATQNAEEQPSTFSENEYDASWSPSWVMWLGLPSTLHSCHDIVLRRSYLGSWGFSIVGGYEENHTNQPFFIKTIVLGTPAYYDGRLKCGDMIVAVNGLSTVGMSHSALVPMLKEQRNKVTLTVICWPGSLV | 2 | 
3 | Zn-RING-Zn domain of LNX2 (aa 20-147) Asp45Ala (domain or fragment, human, UniProt Q8N448 20-147, looked up, PDB 5DIN is the wild-type parent of the same limits; also called Asp45Ala mutant; source: E. coli BL21 (DE3), purified) NPLCFECGQQHWTRENHLYNYQNEVADDLVCHICLQPLLQPLDTPCGHTFCYKCLRNFLQEKDFCPLDRKRLHFKLCKKSSILVHKLLDKLLVLCPFSSVCKDVMQRCDLEAHLKNRCPGASHRRVAL | 2 | 
4 | full-length LNX2 triple mutant (Lys109Ala, Ser688Asp, Val690Glu) (enzyme, human, UniProt Q8N448 1-690, looked up, LNX2, human, full length, with Lys109Ala, Ser688Asp and Val690Glu; also called triple mutant of human FL-LNX2; source: E. coli BL21 (DE3), purified) MGTTSDEMVSVEQTSSSSLNPLCFECGQQHWTRENHLYNYQNEVDDDLVCHICLQPLLQPLDTPCGHTFCYKCLRNFLQEKDFCPLDRKRLHFKLCKKSSILVHKLLDALLVLCPFSSVCKDVMQRCDLEAHLKNRCPGASHRRVALERRKTSRTQAEIENENGPTLLDPAGTLSPEADCLGTGAVPVERHLTSASLSTWSEEPGLDNPAFEESAGADTTQQPLSLPEGEITTIEIHRSNPYIQLGISIVGGNETPLINIVIQEVYRDGVIARDGRLLAGDQILQVNNYNISNVSHNYARAVLSQPCNTLHLTVLRERRFGNRAHNHSDSNSPREEIFQVALHKRDSGEQLGIKLVRRTDEPGVFILDLLEGGLAAQDGRLSSNDRVLAINGHDLKYGTPELAAQIIQASGERVNLTIARPGKPQPGNTIREAGNHSSSSQHHTPPPYYSRPSSHKDLTQCVTCQEKHITVKKEPHESLGMTVAGGRGSKSGELPIFVTSVPPHGCLARDGRIKRGDVLLNINGIDLTNLSHSEAVAMLKASAASPAVALKALEVQIVEEATQNAEEQPSTFSENEYDASWSPSWVMWLGLPSTLHSCHDIVLRRSYLGSWGFSIVGGYEENHTNQPFFIKTIVLGTPAYYDGRLKCGDMIVAVNGLSTVGMSHSALVPMLKEQRNKVTLTVICWPGDLE |  | binds
